The values that follow come from article PMC2532785 (The EMBO Journal, 2008).

The series concerns the molecule itself. The series is described as follows: conventional and dynamic light scattering.

B1: WT Irga6, recombinant (enzyme, mouse, UniProt Q9QZ85 1-413, looked up)
chain: MGQLFSSPKSDENNDLPSSFTGYFKKFNTGRKIISQEILNLIELRMRKGNIQLTNSAISDALKEIDSSVLNVAVTGETGSGKSSFINTLRGIGNEEEGAAKTGVVEVTMERHPYKHPNIPNVVFWDLPGIGSTNFPPNTYLEKMKFYEYDFFIIISATRFKKNDIDIAKAISMMKKEFYFVRTKVDSDITNEADGKPQTFDKEKVLQDIRLNCVNTFRENGIAEPPIFLLSNKNVCHYDFPVLMDKLISDLPIYKRHNFMVSLPNITDSVIEKKRQFLKQRIWLEGFAADLVNIIPSLTFLLDSDLETLKKSMKFYRTVFGVDETSLQRLARDWEIEVDQVEAMIKSPAVFKPTDEETIQERLSRYIQEFCLANGYLLPKNSFLKEIFYLKYYFLDMVTEDAKTLLKEICLRN
Consider B1, for which the binding result is “binds”.

B2: Irga6-K82A, recombinant (enzyme, mouse, UniProt Q9QZ85 1-413, looked up)
chain: MGQLFSSPKSDENNDLPSSFTGYFKKFNTGRKIISQEILNLIELRMRKGNIQLTNSAISDALKEIDSSVLNVAVTGETGSGASSFINTLRGIGNEEEGAAKTGVVEVTMERHPYKHPNIPNVVFWDLPGIGSTNFPPNTYLEKMKFYEYDFFIIISATRFKKNDIDIAKAISMMKKEFYFVRTKVDSDITNEADGKPQTFDKEKVLQDIRLNCVNTFRENGIAEPPIFLLSNKNVCHYDFPVLMDKLISDLPIYKRHNFMVSLPNITDSVIEKKRQFLKQRIWLEGFAADLVNIIPSLTFLLDSDLETLKKSMKFYRTVFGVDETSLQRLARDWEIEVDQVEAMIKSPAVFKPTDEETIQERLSRYIQEFCLANGYLLPKNSFLKEIFYLKYYFLDMVTEDAKTLLKEICLRN
As for B2, the binding result is on record as “binds”.
